Assay results from the supplement of paper PMC9170038.

Tested on: MS2 coat protein
Test: apparent KD of MS2 coat protein; designed switch direction (-1 OFF switch, 1 ON switch): -1; higher = weaker reporter binding
In short: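 The reported apparent KD is a per-design median over clusters, from curve fits of normalised cluster fluorescence. Protein titrations used SNAP-549-labelled MS2 coat protein, doubled from 0.7 or 1.5 nM to 3 µM, in Tris-HCl pH 7.5 buffer with KCl, MgCl2, BSA, DTT, tRNA and Tween-20, with no input, 200 uM small-molecule ligand, or an oligonucleotide input. The RNA switches were transcribed on Illumina chips by stalled E. coli RNA polymerase.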

[1] = input ligand: microRNA oligo, concentration not stated
[2] = Eterna round: R95, input ligand: microRNA oligo, concentration not stated
[3] = Eterna round: R95, input ligand: FMN 200 uM
[4] = Eterna round: R95, input ligand: none

| Sequence | apparent KD of MS2 coat protein (input ligand: FMN 200 uM) | apparent KD of MS2 coat protein (input ligand: none) | apparent KD of MS2 coat protein [1] | also measured |
| --- | --- | --- | --- | --- |
| AUAAUGUGAGGAUAUCAGUCGUACAGCCUCGGCUGUACGACUGAGAAGGCACAUGAGGAUCACCCAUGUGGUCA [E4/5-A2] (Eterna round: R97, puzzle: Exclusion 4) | 156 nM | 590 nM |  |  |
| AUAAUUAGUUCAGGAUAUCAGCACGUUUAGUGCUGAGAAGGGAACAUGAGGAUCACCCAUGUGAUCAAUAUUAUAAUUUUAAUU [ENG1/12-B2] (Eterna round: R96, puzzle: Exclusion NG 1) | 210 nM | 1100 nM | 754 nM |  |
| AUACAACAUGAGGAUCACCCAUGUGAGGAUAUGCGAUACAUCAUCAUCAUCAUCAAUCGCAGAAGGCACAACAU [Different] (puzzle: Exclusion 1) |  |  |  | apparent KD of MS2 coat protein [2]: 52.3 nM |
| AUACGUCAAGUCAGGAUAUAUACCGCGACUACGGCGUAGAAGGGACAUGAGGAUCACCCAUGUAAAAGGGCAAA [Ceerrilaza] (puzzle: Brourd's mod of Exclusion 4) |  |  |  | apparent KD of MS2 coat protein [3]: 37.7 nM; apparent KD of MS2 coat protein [2]: 36.5 nM; apparent KD of MS2 coat protein [4]: 34.5 nM |
| AUAGGAGUAGGAUAUUCAGUUCGACACAUGAGGAUCACCCAUGUCGCUGUGGCCGGGCACGGAGAAGGAUUGUUGU [Eternabot (L1) Solution 15] (Eterna round: R97, puzzle: Exclusion 5) | 39.1 nM | 36.3 nM |  |  |
| AUAGUGUGAGGAUAUCGGACCAGUCCAGUUAGGAGCAGGAUCGAGAAGGUACAUGAGGAUCACCCAUGUGACCA [Eternabot (L2) Solution 8] (Eterna round: R97, puzzle: Exclusion 4) | 30.8 nM | 16.8 nM |  |  |
| AUAUUAAGUGUGAGGAUAUGCUGGUCCUUGGAUCAGCAGAAGGCACAUGAGGAUCACCCAUGUAAUAUAUUUAA [Mat - Exclusion 4 - JL Mod - D48] (puzzle: Brourd's mod of Exclusion 4) |  |  |  | apparent KD of MS2 coat protein [2]: 87.2 nM |
| AUAUUAAUAGUAAGGAUAUGCGUGUAUGUAGUUAUGCAGAAGGUACAUGAGGAUCACCCAUGUAUUAAUGUGUG [LRO-BmodExc4-06-Oppy's Opus] (Eterna round: R97, puzzle: Brourd's mod of Exclusion 4) | 21.6 nM | 17.3 nM |  |  |
| AUAUUGCGAGGAUAUACAUGAGGAUCACCCAUGUGGUAGUAGAUACGGUAGGGCUAGUGUAGAAGGUGUUAUGA [EX3 #14] (Eterna round: R97, puzzle: Exclusion 3) | 80.2 nM | 172 nM |  |  |
| AUCAACGUGUUAGGAUAUAAGCCUAAAAGAGACUUAGAAGGGACAUGAGGAUCACCCAUGUCGGGCGCCCAAGCUAUGCGACCU [Eternabot solution 4] (Eterna round: R96, puzzle: Exclusion NG 1) | 32.8 nM | 26.3 nM | 17.4 nM |  |
| AUCAUGAUAGGAUAUACAUGAGGAUCACCCAUGUCCCACCCGUUACUUCUGGCCCUUUGUAGAAGGAUCGUCAA [Exy#21] (Eterna round: R97, puzzle: Exclusion 3) | 22.2 nM | 26.8 nM |  |  |
| AUCAUGUAAGGAUAUCUUACAUGUAUCGAAAGAUACAGUUAAGAGAAGGUACAUGAGGAUCACCCAUGUAUAAC [Ex4-3: 35] (puzzle: Exclusion 4) |  |  |  | apparent KD of MS2 coat protein [2]: 25.2 nM |
| AUCCGUUGUAUAGGAUAUAAGUGUAAACUGUACUUAGAAGGAUACAUGAGGAUCACCCAUGUUGUAAUAGAUGAGCAUAGAGCA [Eternabot solution 6] (Eterna round: R96, puzzle: Exclusion NG 1) | 52.2 nM | 30.2 nM | 24.1 nM |  |
| AUCGUACUAGGAUAUUCGGAAACGGACAUGAGGAUCACCCAUGUGAAUAUCCGCAGUCCAGAAGAAGGAGUGAACG [EX5 C.27] (Eterna round: R97, puzzle: Exclusion 5) | 33.5 nM | 17.9 nM |  |  |
| AUCGUGCAGCUUUGCUGUACGAGUACAUGAGGAUCACCCAUGUAGGAUAUGGUACGCUUUGCGUGCUAGAAGGAUAUGCGAUUU [EX ENG3 1.47] (Eterna round: R96, puzzle: Exclusion NG 3) | 31.4 nM | 34.6 nM | 23.9 nM |  |
| AUGAAAGUAGGAUAUCGACUGAUUGACAUGAGGAUCACCCAUGUGGUUCUGUGCGGUGUUCGAGAAGGGCUAAGAU [Mageer] (puzzle: Exclusion 5) |  |  |  | apparent KD of MS2 coat protein [3]: 23.1 nM; apparent KD of MS2 coat protein [2]: 15.7 nM; apparent KD of MS2 coat protein [4]: 20.9 nM |

| Sequence | apparent KD of MS2 coat protein (input ligand: FMN 200 uM) | apparent KD of MS2 coat protein (input ligand: none) | apparent KD of MS2 coat protein [1] | also measured |
| --- | --- | --- | --- | --- |
| AUGCCGGUCCUCUCAGGUGUACAUGAGGAUCACCCAUGUCACGAGGAUAUCUAAGCGUGGUGGCCAGAGAAGGUGUGACAUGCU [Atibequ] (Eterna round: R96, puzzle: Exclusion NG 3) | 38.7 nM | 22.8 nM | 17.2 nM |  |
| AUGUUAUUCUGAGGAUAUUGUUUAAUCCUCUCACAUGAGGAUCACCCAUGUUUCCGUGUUUACCGCAAGAAGGCAGUUUUGUUU [JR_ExcNG2_Sub026] (Eterna round: R96, puzzle: Exclusion NG 2) | 63.6 nM | 61.8 nM | 48.7 nM |  |
| AUGUUAUUCUGAGGAUAUUGUUUAUUCUUCUCACAUGAGGAUCACCCAUGUUUCCGUGUUUACCGCAAGAAGGCAGUUUUGUUU [JR_ExcNG2_Sub027] (Eterna round: R96, puzzle: Exclusion NG 2) |  |  | 22.1 nM |  |
| AUUACGCAGUAGGAUAUGGGCGGUGAGCACCGUCCAGAAGGACUGACAUGAGGAUCACCCAUGUCCUCCCACAC [Eternabot (L2) Solution 42] (Eterna round: R97, puzzle: Exclusion 6) | 497 nM | 55.8 nM |  |  |
| AUUAGUAUCUAGGAUAUCUAGUACAUAGUAUCUAGAGAAGGAGAUACAUGAGGAUCACCCAUGUUCUGUGAUCU [Exclusion 6 - 2:a] (puzzle: Exclusion 6) |  |  |  | apparent KD of MS2 coat protein [2]: 155 nM |
| AUUAUGUAAGGAUAUCUUACAUGUGACUUCGGUCACUGUCAAGAGAAGGUACAUGAGGAUCACCCAUGUAUGAC [Ex4-3: 49] (puzzle: Exclusion 4) |  |  |  | apparent KD of MS2 coat protein [2]: 14.2 nM |
| AUUAUGUUAGGAUAUGCUUAUGGUGGAUAGUCCAAUGUGGUGCAGAAGGGACAUGAGGAUCACCCAUGUGCUGA [EX4 #30] (Eterna round: R97, puzzle: Exclusion 4) | 92.3 nM | 57.5 nM |  |  |
| AUUAUUUAAGUCAGGAUAUCGUAUUUAAUUAAAUACGAGAAGGGACAUGAGGAUCACCCAUGUAAUAAAUUUUA [JMFs Solution 1] (puzzle: Brourd's mod of Exclusion 4) |  |  |  | apparent KD of MS2 coat protein [3]: 24.1 nM; apparent KD of MS2 coat protein [2]: 14.2 nM; apparent KD of MS2 coat protein [4]: 15.9 nM |
| AUUAUUUCAGGAUAUGCCUUCAAAGACAUGAGGAUCACCCAUGUUUUCAGUGGCAGGAUCGCAGAAGGGAGAUAUU [EX5 C.29] (Eterna round: R97, puzzle: Exclusion 5) | 15.6 nM | 14.4 nM |  |  |
| AUUGGACACUCAGGAUAUCAGGUUCUAUACAUGAGGAUCACCCAUGUGGGCGAACCCAUGAUAGCUGAGAAGGGAGUAAUCCUA [Orxete] (Eterna round: R96, puzzle: Exclusion NG 2) | 39 nM | 19.4 nM | 11.9 nM |  |
| AUUGUAUGGGAAGGAUAUAGAAUAUUAUUUUAACAUGAGGAUCACCCAUGUAACCUUAUGUGUAGCUAGAAGGUCCGUUUGUUA [Title] (Eterna round: R96, puzzle: Exclusion NG 2) |  |  | 269 nM |  |
| AUUGUGUGAGGAUAUUAAUAGUAAAUGAAUAGAAUUAUGAUUGAGAAGGCACAUGAGGAUCACCCAUGUUCCUU [JR_Ex4_Sub081] (Eterna round: R97, puzzle: Exclusion 4) | 17.8 nM | 19.6 nM |  |  |
| AUUGUGUUAGGAUAUGCUUAUGGUGGGUAGUCCAGUAUGAAGUAGAAGGGACAUGAGGAUCACCCAUGUGCUGA [EX4 #36] (Eterna round: R97, puzzle: Exclusion 4) | 136 nM | 164 nM |  |  |
| AUUUAAUUUAAUAAGAUCACAUGAGGAUCACCCAUGUUAUAAUAGGAUAUCAGCUCGUUUAGAGCUGAGAAGGAUUAUAACAUG [ExNG3/9-A2] (Eterna round: R96, puzzle: Exclusion NG 3) | 31.8 nM | 7.21 nM | 20.8 nM |  |
| AUUUAAUUUAGCGAGAUCACAUGAGGAUCACCCAUGUAUAUAUAGGAUAUCAGCUCGAAUAGAGCUGAGAAGGAUAUAUACCGC [ExNG3/7-A4] (Eterna round: R96, puzzle: Exclusion NG 3) |  |  | 76.7 nM |  |
| AUUUAGAGAGGAUAUAUAAUGUGAAACAUGAGGAUCACCCAUGUAAUAUUAUGGAUGUAAAUAGAAGGCUCAUUUA [Mat - Exclusion 5 - JL mod - D5] (puzzle: Exclusion 5) |  |  |  | apparent KD of MS2 coat protein [2]: 30.2 nM |
